We go through three molecules from PMC9376089, “Reformation of the chondroitin sulfate glycocalyx enables progression of AR-independent prostate cancer”.

Data set [1] concerns the target T1, AR-DBD (EMSA) (UniProt P10275 556-629). Nature of the data set: EMSA; 100 fmol probe, AR-DBD titration, poly(dI-dC); BLI: 20 mM Tris pH 8, 150 mM NaCl, 5% glycerol, 2 mM DTT, 0.1 mM PMSF, temperature not stated; EMSA: 10 mM Tris pH 7.5, 50 mM KCl, DTT (1 mM); 2.5 mM with 0.25%. The following applies: protein: recombinant, chain copies: 2, blunt.
Data set [2] has as its target T1, AR-DBD (EMSA). Nature of the data set: competition; 20 nmol unlabeled competitor (so in the source) vs labeled TMPRSS2-ARE; BLI: 20 mM Tris pH 8, 150 mM NaCl, 5% glycerol, 2 mM DTT, 0.1 mM PMSF, temperature not stated; EMSA: 10 mM Tris pH 7.5, 50 mM KCl, DTT (1 mM); 2.5 mM with 0.25%. To be noted: protein: recombinant; chain copies: 2; blunt. In general terms: Mobility shift assays separate free from complexed probe on a gel.

T1 sequence (P10275 556-629): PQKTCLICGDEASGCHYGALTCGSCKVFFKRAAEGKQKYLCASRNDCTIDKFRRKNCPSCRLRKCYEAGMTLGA

B1: PSA-ARE (EMSA probe) (dsDNA)
DNA 1: TACAAATAGGTTCTTGGAGTACTTTACTAGGCATGGACAATG
DNA 2: CATTGTCCATGCCTAGTAAAGTACTCCAAGAACCTATTTGTA
With B1, the binding result with AR-DBD (EMSA) [1] (label: 5' IRD700 on strand 1) is recorded as “binds”.

B2: CHST11-ARE (EMSA probe) (dsDNA)
DNA 1: AGATGCCCCAGTGTTCTAG
DNA 2: CTAGAACACTGGGGCATCT
With B2, the binding result with AR-DBD (EMSA) [1] was “binds”.

B3: CHST11-ARE (unlabeled competitor) (dsDNA)
DNA 1: AGATGCCCCAGTGTTCTAG
DNA 2: CTAGAACACTGGGGCATCT
Take B3: the binding result with AR-DBD (EMSA) [2] was “binds”.
